From US7666989B2 (priority 2003, dated 2010)
Several values for one entry are separate records, joined by “and”; a condition that tells them apart may be missing. Identical values can stand only once. Like-named read-outs stand apart in the source and are kept apart here. Marks after values point to notes of the source that are not given here.

Legend:
[1] = system: MDA-MB-435 (human breast cancer cell); experiment: MTT cytotoxicity, MDA-MB-435; format: cell-based; conditions: 4 days
Excerpt: Reagents: RPMI1640 is from GIBCO; MTT is from Bebco. Fetal bovine serum is purchased from Hangzhou SiJiQing Bioengineering Material Co. Ltd. (P. R. China).
Cell lines: COLO 205 (human colon cancer cell), NCI-H460 (human lung cancer cell), RPMI 8226 (human multiple myeloma cell), U251 (human brain glioma cell) are from ATCC, USA. HL-60 (human promyelocytic leukemia cell), MDA-MB-231, MDA-MB-435 (human breast cancer cell), SCLC (human small-cell lung cancer cell), H125 (human lung cancer cell) and PC-3 (human […] cancer cell).
The well-grown tumor cells were collected to prepare a cell suspension (1×10^4/ml) with RPMI 1640 medium containing 10% fetal bovine serum. The cell suspension was inoculated into a 96-well plate, 100 μL (containing 1000 tumor cells) per well. The plate was cultured in a 5% CO2 incubator at 37° C. for 24 hours, followed by addition of medicament.
A blank control and a positive control using 5-fluorouracil or adriamycin are employed in the experiment. […]
The supernatant was discarded. […] After gently shaking, the OD values were measured by a BIORAD 550 enzyme analyzer, with the detection wavelength being 540 nm and the reference wavelength being 450 nm.
Dose-response curves were generated by plotting with the cell inhibition rates and different concentrations of medicament, and the half inhibitory concentrations (IC50) were calculated.

[2] = system: human brain glioma U251; conditions: U251 xenograft, ten injections; for Body Weight (g) Start / Tumor volume (mm^3) Start: baseline; for Inhibition rate (%): by tumor weight
Excerpt: In this example, the animals used were BALB/c-nu nude mice, 6-8 weeks old. For each experiment, all animals were of the same sex.
Tumor cell lines: human brain glioma U251, human lung cancer cell line NCI-H460, human colon cancer cell line COLO205 were inoculated from in vitro culture into nude mice subcutaneously, the tumors were subcultured and kept.
Experimental Procedures: well-grown nude mice carrying well-grown tumors were selected and sacrificed by disjointing neck vertebra. The tumors were removed aseptically and were cut into pieces having a diameter of 2-3 mm by a scalpel. The pieces were inoculated into the axilla of nude mice subcutaneously by a needle. […] The length and width of tumors were measured by a vernier caliper. The animals were then grouped based their tumor sizes. Each group included seven to eight animals.
The length, width of the tumor and the body weight of the mice were measured twice per week. The tumor volume (TV) and relative tumor volume (RTV) were calculated. A graph indicating the changes of tumor size was plotted. At the end of this experiment, the tumors were taken out and weighed after the mice were sacrificed, and the inhibition rates of the medicament on tumor growth were calculated.
The formula for calculating tumor volume (TV) is: length×width^2÷2.
The formula for calculating relative tumor volume (RTV) is: Vt/Vo (wherein Vo is the TV value measured when the administration is started, Vt is the TV value measured after that).
T-test was used to determine the statistical difference of tumor weights, tumor volumes and RTV etc. between different groups of animal. The index used for evaluating the anti-tumor activity is the relative tumor growth rate T/C (%), the formula for which is: […]
(§1) The evaluation standard for efficacy:
(§2) T/C (%)>60 is ineffective;
T/C (%)≦60 and P<0.05 after statistical analysis is effective.
The Carmustine (Renmin Pharmaceuticals, Amino Acid Inc. Tianjin, P. R. China) was used as the positive control, 40 mg/kg, administered by intraperitoneal injection for once. CPT was given to four groups at the doses of 0.6 mg/kg, 1.7 mg/kg, 5.0 mg/kg, 15.0 mg/kg respectively, administered by intraperitoneal injection. The treatment included ten injections.

[3] = system: human lung cancer NCI-H460; experiment: Growth of human lung cancer NCI-H460 xenograft in nude mice; format: in vivo, BALB/c-nu nude mice; conditions: ten injections; for Body Weight (g) Start / Tumor volume (mm^3) Start: baseline; for Inhibition rate (%): by tumor weight
Method: The animals were then grouped based their tumor sizes. Each group included seven to eight animals.
as §1, §2
One additional injection was given at 80 mg/kg two weeks later. […] The treatment contained a total of ten injections.

[4] = Side or toxic effects in treated tumor-bearing nude mice; format: in vivo, BALB/c-nu nude mice; conditions: treated nude mice versus negative control; body weight and viability
Excerpt: No substantial difference in the parameters concerning the living status of mice, such as body weight and viability of the treated groups were observed compared with those of the negative control group, except that the sizes of tumor in the treated mice were smaller. […] Therefore, CPT may be used as an effective and safe medicament for treating cancers. CPT is both theoretically and industrially important and has a bright future in the market.

[5] = Water solubility of the end product; format: physicochemical; conditions: purified protein, white powder
Excerpt: Finally, the protein was purified by an ion exchange column and a gel filtration column Superdex 200 (Pharmacia) mounted in an AKTA HPLC system (Pharmacia). […] The end product was a white powder and was water soluble.

[6] = CPT 1.7 mg/kg i.p. once per day
[7] = CPT 5.0 mg/kg i.p. once per day

B1: CPT: human recombinant circularly permuted TRAIL (CPT), which consists of 166 amino acid residues; SEQ ID No:2 (protein)
chain: TLSSPNSKNEKALGRKINSWESSRSGHSFLSNLHLRNGELVIHEKGFYYIYSQTYFRFQEEIKENTKNDKQMVQYIYKYTSYPDPILLMKSARNSCWSKDAEYGLYSIYQGGIFELKENDRIFVSVTNEHLIDMDHEASFFGAFLVGGGGGGVAAHITGTRGRSNT
modifications: Synthetically generated peptide
IC50 [1]: 8 ± 2 ng/mL | Body Weight (g) End ([2]; CPT 0.6 mg/kg i.p.): 21.0 ± 1.4 g | RTV ([2]; CPT 0.6 mg/kg i.p.): 2.77 ± 1.97 | T/C (%) ([2]; CPT 0.6 mg/kg i.p.): 82.9% | Tumor volume (mm^3) End ([2]; CPT 0.6 mg/kg i.p.): 961 ± 582 mm^3 | Tumor weight ([2]; CPT 0.6 mg/kg i.p.): 0.89 ± 0.49 g | Body Weight (g) Start ([2]; CPT 0.6 mg/kg i.p.): 21.0 ± 0.8 g | Tumor volume (mm^3) Start ([2]; CPT 0.6 mg/kg i.p.): 141 ± 40 mm^3 | Inhibition rate (%) ([2]; CPT 0.6 mg/kg i.p.): 30.5% | Body Weight (g) End ([2]; CPT 1.7 mg/kg i.p.): 21.5 ± 2.0 g | RTV ([2]; CPT 1.7 mg/kg i.p.): 2.12 ± 1.29 | T/C (%) ([2]; CPT 1.7 mg/kg i.p.): 63.5% | Tumor volume (mm^3) End ([2]; CPT 1.7 mg/kg i.p.): 588 ± 215** mm^3 | Tumor weight ([2]; CPT 1.7 mg/kg i.p.): 0.71 ± 0.22 g | Body Weight (g) Start ([2]; CPT 1.7 mg/kg i.p.): 21.6 ± 1.2 g | Tumor volume (mm^3) Start ([2]; CPT 1.7 mg/kg i.p.): 131 ± 34 mm^3 | Inhibition rate (%) ([2]; CPT 1.7 mg/kg i.p.): 44.5% | Body Weight (g) End ([2]; CPT 5.0 mg/kg i.p.): 21.9 ± 3.2 g | RTV ([2]; CPT 5.0 mg/kg i.p.): 1.32 ± 1.24 | T/C (%) ([2]; CPT 5.0 mg/kg i.p.): 39.5% | Tumor volume (mm^3) End ([2]; CPT 5.0 mg/kg i.p.): 510 ± 333** mm^3 | Tumor weight ([2]; CPT 5.0 mg/kg i.p.): 0.45 ± 0.26 g | Body Weight (g) Start ([2]; CPT 5.0 mg/kg i.p.): 22.0 ± 1.1 g | Tumor volume (mm^3) Start ([2]; CPT 5.0 mg/kg i.p.): 133 ± 57 mm^3 | Inhibition rate (%) ([2]; CPT 5.0 mg/kg i.p.): 64.8% | Body Weight (g) End ([2]; CPT 15 mg/kg i.p.): 21.1 ± 1.7 g | RTV ([2]; CPT 15 mg/kg i.p.): 0.71 ± 0.57 | Tumor volume (mm^3) End ([2]; CPT 15 mg/kg i.p.): 261 ± 238** mm^3 | Tumor weight ([2]; CPT 15 mg/kg i.p.): 0.16 ± 0.15 g | Body Weight (g) Start ([2]; CPT 15 mg/kg i.p.): 21.6 ± 1.1 g | Tumor volume (mm^3) Start ([2]; CPT 15 mg/kg i.p.): 148 ± 58 mm^3 | Inhibition rate (%) ([2]; CPT 15 mg/kg i.p.): 87.5% and 87.7% | Body Weight (g) End [3, 6]: 19.8 ± 1.6 g | RTV [3, 6]: 2.27 ± 1.13 | T/C (%) [3, 6]: 38.0% | Tumor volume (mm^3) End [3, 6]: 706 ± 170* mm^3 | Tumor weight [3, 6]: 0.77 ± 0.19 g | Body Weight (g) Start [3, 6]: 20.1 ± 1.9 g | Tumor volume (mm^3) Start [3, 6]: 200 ± 103 mm^3 | Inhibition rate (%) [3, 6]: 52.2% | Body Weight (g) End [3, 7]: 18.5 ± 2.5 g | RTV [3, 7]: 1.49 ± 0.76 | Tumor volume (mm^3) End [3, 7]: 469 ± 359** mm^3 | Tumor weight [3, 7]: 0.41 ± 0.28 g | Body Weight (g) Start [3, 7]: 20.4 ± 1.9 g | Tumor volume (mm^3) Start [3, 7]: 187 ± 51 mm^3 | Inhibition rate (%) [3, 7]: 74.5% | Body Weight (g) End ([3]; CPT 15 mg/kg i.p. once per day): 21.1 ± 1.7 g | RTV ([3]; CPT 15 mg/kg i.p. once per day): 0.79 ± 0.25 | Tumor volume (mm^3) End ([3]; CPT 15 mg/kg i.p. once per day): 189 ± 102** mm^3 | Tumor weight ([3]; CPT 15 mg/kg i.p. once per day): 0.21 ± 0.10 g | Body Weight (g) Start ([3]; CPT 15 mg/kg i.p. once per day): 20.9 ± 1.1 g | Tumor volume (mm^3) Start ([3]; CPT 15 mg/kg i.p. once per day): 192 ± 63 mm^3 | Inhibition rate (%) ([3]; CPT 15 mg/kg i.p. once per day): 87.0% and 88.8% | side or toxic effects on animals [4]: did not exhibit any apparent side or toxic effects | water solubility of the end product [5]: water soluble
